For assay [1], the target named is T1, hIgG1-Fc (human, UniProt P01857-1 100-330 = IgG part, limits assumed).
T1 construct: domain: Fc; treated as the same molecule; also called IgG1 Fc region; hIgG-Fc
In words: SPR, Biacore 3000, 25 C, Langmuir 1:1 model. The source says: (§1) A CM5 sensor chip (GE Healthcare) was equilibrated with SPR running buffer. Surface-exposed carboxylic groups were activated by passing a mixture of EDC and NHS to yield reactive ester groups. 700-1500 RU on-ligand were immobilized on a flow cell, off-ligand was immobilized on another flow cell. Injection of ethanolamine after ligand immobilization removes non-covalently bound Ig binding protein. Upon ligand binding, protein analyte was accumulated on the surface increasing the refractive index. This change in the refractive index was measured in real time and plotted as response or resonance units (RU) versus time. The analytes were applied to the chip in serial dilutions with a suitable flow rate (µl/min). After each run, the chip surface was regenerated with regeneration buffer and equilibrated with running buffer. The control samples were applied to the matrix. Regeneration and re-equilibration were performed as previously mentioned. Binding studies were carried out by the use of the Biacore® 3000 (GE Healthcare) at 25° C.; data evaluation was operated via the BIAevaluation 3.0 software, provided by the manufacturer, by the use of the Langmuir 1:1 model (RI=0). Evaluated dissociation constants (KD) were standardized against off-target and KD values of different artificial Ig binding proteins for hIgG1-Fc (FIG. 2 and TABLE 6). For example, the KD of SEQ ID NO: 41 (CID208846) and SEQ ID NO: 42 (CID208847) is in single-digit µM range vs. hIgG1-Fc.
Background: In SPR one partner is held on a chip, and binding of the other changes the refractive index at the surface.

For assay [2], the target named is T1, hIgG1-Fc. In words: SPR, Biacore 3000.
From the text: as §1

In assay [3] the target is T1, hIgG1-Fc. The assay can be described thus: SPR (Biacore) on hIgG1-Fc, one concentration, 1 µM.
From the text: Analysis via label-free interaction assays using SPR spectroscopy (BIAcore). Change in refractive index measured in real time and plotted as response or resonance unit [RU] versus time [sec]. […] Solid line = Ig binding protein SEQ ID NO: 41; dotted line = Ig binding protein SEQ ID NO: 42.
as §1, with “Binding studies were carried out by the use of the Biacore® 3000 (GE Healthcare) at 25° C.; data evaluation was operated via the BIAevaluation 3.0 software, provided by the manufacturer, by the use of the Langmuir 1:1 model (RI=0).” left out, “For example, the KD of SEQ ID NO: 41 (CID208846) and SEQ ID NO: 42 (CID208847) is in single-digit µM range vs. hIgG1-Fc.” left out

B1: CID213235 (designed binder)
chain: ADNKFSQSANLLAEAKKLSDAQRGLTEEQRNGFIQSLKDDTKRHPKMNKEQQNAFYEILHLPK
As a reminder, the Kd is the free concentration of one partner at which half of the binding sites on the other are occupied at equilibrium, for simple one-to-one binding. High values mean a looser complex, low ones a tighter complex. In turn, B1 came in with a Kd in assay [1] of 257 nM.

B2: CID-213276 (designed binder)
chain: ADNKFSQSANLLAEAKKLNDAQGGITEEQRNGFIQSLKDDAKANPEANKEQQNAFYEILHLPK
notes: not tied in the text
B2: the binding result in assay [2] was “binds”.

B3: CID210259 (designed binder)
chain: ADNKFSQSANLLAEAKKLNDAQGGITEEQRNGFIQSLKDDAKRNPMTNKEQQNAFYEILHLPK
In the case of B3, the Kd in assay [1] was 507 nM.

B4: CID213333 (designed binder)
chain: ADNKFSQSANLLAEAKKLNDAQGGITEEQRNGFIQSLKDDAKTNPGNNKEQQNAFYEILHLPK
For B4, in assay [1], binding was characterised by a dissociation constant (Kd) of 43 nM. This Kd is about 12-fold lower than that of the molecule before.

B5: CID213197 (designed binder)
chain: ADNKFSQSANLLAEAKKLNDAQGGLTEEQRNGFIQSLKDDTAANPTANKEQQNAFYEILHLPK
The molecule B5 yielded a dissociation constant (Kd) in assay [1] of 84 nM.

B6: SEQ ID NO: 42 (CID208847) (designed binder)
chain: ADNKFSQSANLLAEAKKLNDAQGGLTEEQRNGFIQSLKDDVPAGVANNKEQQNAFYEILHLPK
In the case of B6, in assay [3], the binding result was “binds”.

B7: CID-210240 (designed binder)
chain: ADNKFSQSANLLAEAKKLNDAQGGLTEEQRNGFIQSLKDDPVLRGKPNKEQQNAFYEILHLPK
notes: not tied in the text
Take B7: the binding result in assay [2] is “binds”.

B8: CID210279 (designed binder)
chain: ADNKFSQSANLLAEAKKLNDAQGGLTEEQRNGFIQSLKDDTHPEDRQHNKEQQNAFYEILHLPK
In assay [1], B8 came in with a Kd of 103 nM.

B9: SEQ ID NO: 41 (CID208846) (designed binder)
chain: ADNKFSQSANLLAEAKKLNDAQGGITEEQRNGFIQSLKDDIGASPMNKEQQNAFYEILHLPK
On to B9, for which the binding result in assay [3] is listed as “binds”.

B10: CID213246 (designed binder)
chain: ADNKFSQSANLLAEAKKLNDAQGGLTEEQRNGFIQSLKDDVRRVGSNKEQQNAFYEILHLPK
For the molecule B10, in assay [1], the Kd stood at 248 nM.

B11: CID213224 (designed binder)
chain: ADNKFSQSANLLAEAKKLNDAQNGLTEEQRNGFIQSLKDDVRTNGANKEQQNAFYEILHLPK
B11 yielded an equilibrium dissociation constant (Kd) in assay [1] of 220 nM.

B12: CID213191 (designed binder)
chain: ADNKFSQSANLLAEAKKLNDAQGGLTEEQRNGFIQSLKDDGTEGVHNKEQQNAFYEILHLPK
B12 had a dissociation constant (Kd) in assay [1] of 132 nM.

B13: CID213278 (designed binder)
chain: ADNKFSQSANLLAEAKKLNDAQGGLTEEQRNGFIQSLKDDMNVGKHNKEQQNAFYEILHLPK
The molecule B13 gave a dissociation constant (Kd) in assay [1] of 199 nM.

B14: CID213215 (designed binder)
chain: ADNKFSQSANLLAEAKKLNDAQGGLTEEQRNGFIQSLKDDVRKLGPNKEQQNAFYEILHLPK
B14 showed a Kd in assay [1] of 190 nM.

B15: CID-213213 (designed binder)
chain: ADNKFSQSANLLAEAKKLNDAQGGLTEEQRNGFIQSLKDDHTPTRGNKEQQNAFYEILHLPK
notes: not tied in the text
In the case of B15, the binding result in assay [2] is “binds”.

B16: CID-210234 (designed binder)
chain: ADNKFSQSANLLAEAKKLNDAQGGLTEEQRNGFIQSLKDDASEKGANKEQQNAFYEILHLPK
notes: not tied in the text
Turning to B16, the binding result in assay [2] is recorded as “binds”.

The record behind these values is patent publication US20230212218A1 (NAVIGO PROTEINS, published 2023).
